In article PMC6731260:

Tests used:
[1] = CHX chase, FLAG-ESRRB immunoblot, mESCs; details: glycan lost; control: DMSO
[2] = ESRRB-responsive element luciferase reporter, HEK293T; details: glycan lost
[3] = CHX 12 h, immunoblot, HEK293T; details: glycan lost; control: EGFP-ESRRB wild type
[4] = CHX chase up to 12 h, immunoblot, mESCs; details: glycan lost; control: FLAG-ESRRB wild type
[5] = GFP immunoprecipitation, ubiquitin blot, HEK293T; details: glycan lost; control: wild type

Row | Protein | degradation_or_half_life [1] | other: transcriptional activity ([2]; control: DMSO) | degradation_or_half_life [3] | degradation_or_half_life [4] | other: ubiquitination [5] | other: transcriptional activity ([2]; control: FLAG-ESRRB wild type)
1 | ESRRB: Ac45SGlcNAc (OGT inhibitor) (protein) parent chain: MSSEDRHLGSSCGSFIKTEPSSPSSGIDALSHHSPSGSSDASGGFGIALSTHANGLDSPPMFAGAGLGGNPCRKSYEDCTSGIMEDSAIKCEYMLNAIPKRLCLVCGDIASGYHYGVASCEACKAFFKRTIQGNIEYNCPATNECEITKRRRKSCQACRFMKCLKVGMLKEGVRLDRVRGGRQKYKRRLDSENSPYLNLPISPPAKKPLTKIVSNLLGVEQDKLYAMPPNDIPEGDIKALTTLCELADRELVFLINWAKHIPGFPSLTLGDQMSLLQSAWMEILILGIVYRSLPYDDKLAYAEDYIMDEEHSRLVGLLDLYRAILQLVRRYKKLKVEKEEFMILKALALANSDSMYIENLEAVQKLQDLLHEALQDYELSQRHEEPRRAGKLLLTLPLLRQTAAKAVQHFYSVKLQGKVPMHKLFLEMLEAKV | decreases | decreases |  |  |  | 
2 | ESRRB: S25A (protein) parent chain: MSSEDRHLGSSCGSFIKTEPSSPSSGIDALSHHSPSGSSDASGGFGIALSTHANGLDSPPMFAGAGLGGNPCRKSYEDCTSGIMEDSAIKCEYMLNAIPKRLCLVCGDIASGYHYGVASCEACKAFFKRTIQGNIEYNCPATNECEITKRRRKSCQACRFMKCLKVGMLKEGVRLDRVRGGRQKYKRRLDSENSPYLNLPISPPAKKPLTKIVSNLLGVEQDKLYAMPPNDIPEGDIKALTTLCELADRELVFLINWAKHIPGFPSLTLGDQMSLLQSAWMEILILGIVYRSLPYDDKLAYAEDYIMDEEHSRLVGLLDLYRAILQLVRRYKKLKVEKEEFMILKALALANSDSMYIENLEAVQKLQDLLHEALQDYELSQRHEEPRRAGKLLLTLPLLRQTAAKAVQHFYSVKLQGKVPMHKLFLEMLEAKV |  |  | decreases | decreases | increases | decreases
